Paper PMC7525490, “Uridine diphosphate N-acetylglucosamine orchestrates the interaction of GlmR with either YvcJ or GlmS in Bacillus subtilis” (Scientific Reports, 2020)
Blank lines part the entries; values can stand above or below the molecule they belong to.

Key:
YvcJ = molecular target: T1, YvcJ (Bacillus subtilis, UniProt O06973); assay: thermal shift assay (SYPRO Orange) with apparent KD; supported by limited proteolysis with endoproteinase Glu-C; type: binding
T1 construct: 6His-tagged recombinant YvcJ
T1 sequence (O06973 1-295): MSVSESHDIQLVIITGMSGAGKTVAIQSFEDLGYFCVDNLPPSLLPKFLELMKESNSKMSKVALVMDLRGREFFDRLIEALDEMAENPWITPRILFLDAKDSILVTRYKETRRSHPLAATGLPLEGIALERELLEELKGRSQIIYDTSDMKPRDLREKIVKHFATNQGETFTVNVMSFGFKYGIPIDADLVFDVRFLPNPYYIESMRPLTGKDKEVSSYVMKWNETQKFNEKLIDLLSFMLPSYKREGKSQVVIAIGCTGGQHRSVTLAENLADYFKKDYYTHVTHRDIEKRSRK

[1] = molecular target: T2, YvcJ, purified 6His-tagged protein (Bacillus subtilis, UniProt O06973 1-295); assay: ITC; 1 mM UDP-GlcNAc
T2 chain: T1 sequence (O06973 1-295)

[2] = molecular target: T2, YvcJ, purified 6His-tagged protein
[3] = molecular target: T3, GlmS, glucosamine-6-phosphate synthase from B. subtilis, with a C-terminal 6His-tag (Bacillus subtilis 168, UniProt P0CI73 1-600); assay: cell-based or functional assay
T3 sequence (looked up): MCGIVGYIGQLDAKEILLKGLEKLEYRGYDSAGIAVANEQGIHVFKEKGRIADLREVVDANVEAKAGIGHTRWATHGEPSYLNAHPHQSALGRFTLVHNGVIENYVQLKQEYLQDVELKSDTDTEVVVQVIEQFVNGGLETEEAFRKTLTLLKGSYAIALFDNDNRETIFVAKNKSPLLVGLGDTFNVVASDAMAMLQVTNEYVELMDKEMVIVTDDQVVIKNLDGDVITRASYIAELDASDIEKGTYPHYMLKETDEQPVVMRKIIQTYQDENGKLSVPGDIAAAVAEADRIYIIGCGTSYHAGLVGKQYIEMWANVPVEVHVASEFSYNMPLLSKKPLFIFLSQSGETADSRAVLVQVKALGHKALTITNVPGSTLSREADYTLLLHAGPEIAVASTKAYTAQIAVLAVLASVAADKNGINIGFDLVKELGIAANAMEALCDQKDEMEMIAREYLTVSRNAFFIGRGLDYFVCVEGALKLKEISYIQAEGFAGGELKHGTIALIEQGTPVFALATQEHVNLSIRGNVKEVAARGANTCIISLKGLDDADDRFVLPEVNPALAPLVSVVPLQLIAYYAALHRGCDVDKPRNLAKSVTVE

[4] = molecular target: the molecule itself; assay: dynamic light scattering; 24 µM YvcJ alone, without or with 0.4 mM UDP-GlcNAc; 25 °C; 50 mM Tris-HCl pH 7.5, 50 mM NaCl, 5% glycerol
[5] = molecular target: the molecule itself; assay: dynamic light scattering; 24 µM YvcJ with 7 µM GlmR (ratio 1:0.3 YvcJ:GlmR) and 0.4 mM UDP-GlcNAc; 25 °C; 50 mM Tris-HCl pH 7.5, 50 mM NaCl, 5% glycerol

Kd (YvcJ): 280 ± 470 µM
Molecule: CC(=O)N[C@H]1[C@@H](OP(=O)(O)OP(=O)(O)OC[C@H]2O[C@@H](n3ccc(=O)[nH]c3=O)[C@H](O)[C@@H]2O)O[C@H](CO)[C@@H](O)[C@@H]1O [UDP-GlcNAc]

Kd [1]: 9.03 µM
hydrodynamic size of YvcJ by dynamic light scattering; 24 µM YvcJ titrated with GlmR at a ratio 1:0.3 in the presence of 0.4 mM UDP-GlcNAc [2]: 124 nm
GlmS specific activity (GlcN6P produced, enzyme-coupled assay with GNA-1, CoASH at 412 nm, 37 °C); 7.3 µM GlmS with 0 to 32.1 µM GlmR, no UDP-GlcNAc [3]: 16 fold
B1: GlmR (formerly YvcK), purified 6His-tagged protein (natural protein)
chain: MGQKPKIAIFGGGTGLSVLLRGLKHKPVDITAIVTVADDGGSSGRLRNELKIPPPGDIRNVLAALSDVEPLVEDLFQHRFNKGNDLTGHSLGNLILAAMTNITGDFFHAVTEMSKVLNVRGKVLPAANASVVLHAEMEDGRVVSGESTIPEYGQRIKRVFLTPEQIDPLPETIDVIREADLIIIGPGSLYTSILPNLLVPKIGEEVIKAPAKKVYICNVMTQPGETLHYTAADHVKALNQHMGCGFIDTILVNSEDIPDEIKRKYEMESARPVDFDIEELKAMGLEVIRDQIVTYKNDVIRHDTHKVASLLVDLLKE

B2: YvcJ, purified 6His-tagged protein (natural protein, Bacillus subtilis, UniProt O06973 1-295, looked up)
chain: T1 sequence (O06973 1-295)
notes: Cloned BamHI/XhoI in pET21: the His tag is probably C-terminal and vector residues may precede Met1 (surmised); also called RapZ homologue; source: purified (Ni2+-NTA resin, PD-10 column) as previously described
stoichiometry N [4]: ~15 molecules
stoichiometry N [5]: 5 molecules
